# “Also recorded” adds a separate entry of the source.
# B1: [^111In]In-DTPA-MQ4.112hz_3_1: MQ4.112hz_3_1 conjugated with DTPA and labeled with 111In (conjugate)
# VH: DVQLQESGPGLVKPSETLSLTCAVSGYSITSDYYWHWIRQFPGKGLEWMGYISYDGSNNYNPSLKSRVTISVDTSKNQFSLKLSSVTAADTAVYYCARDDDAMDYWGQGTLVTVSS
# VL: DIQMTQSPSSLSASVGDRVTITCRASQDISNYLNWYQQKPGKAPKLLIYYTSRLHSGVPSRFSGSGSGTDFTFTISSLQPEDIATYYCQQGNTLPPTFGQGTKVEIK
# B2: DTPA-IrDye 800CW anti-COLL II (MQ4.112 hz3_1): MQ4.112hz_3_1 dually conjugated with DTPA and IrDye 800CW, substitution ratio IrDye 800CW= 1.83 (conjugate)
# VH: B1 VH
# VL: B1 VL
# Experiments:
# human cartilage explants [1] = target: T1, human cartilage explants (Homo sapiens, UniProt P02458); assay: Binding of 111In-labeled DTPA-conjugated antibodies to human cartilage explants (gamma counting); settings: Figure 8
# T1 construct: From surgical waste material obtained after total knee arthroplasty; from tissue; host or cells: human articular cartilage from joint replacement surgery of OA patients
# human cartilage explants [2] = target: T1, human cartilage explants; assay: Binding of DTPA-IrDye 800CW conjugated antibodies to human cartilage with or without trypsin (Odyssey CLX imaging); settings: 4 µg/ml, 4 H, 37°C; preserved regions of OA cartilage; Figure 9
# Protocol: From surgical waste material obtained after total knee arthroplasty (Patient number SMK1186), human cartilage from the macroscopically preserved regions was isolated with a surgical blade, and 6 mm punches were made using a biopsy punch. Human cartilage explants were overnight incubated in DMEM/F12 without FBS supplemented with 10.000 U/mL penicillin/streptomycin at 37°C with 5% CO2. Half of the explants were incubated for 1 H with 2.5% Trypsin-EDTA in PBS at 37°C on a roller in a 50 ml falcon tube. The other half was incubated under the same conditions in PBS. The trypsin-EDTA was replaced by 1% FBS in PBS (to block the enzymatic activity of trypsin), in which the explants were incubated for 15 min. Cartilage explants were washed with PBS (3x 5 min). Three explants/condition were divided over sterile FACS tubes and exposed 4 µg/ml DTPA-IrDye 800CW isotype (2.201a) (substitution ratio IrDye 800CW= 1.54) or DTPA-IrDye 800CW anti-COLL II antibody (MQ4.112 hz3_1) (substitution ratio IrDye 800CW= 1.83) in DMEM/F12 media supplemented with 0.5% BSA (final volume was 1 ml) for 4 H on a roller at 37°C. […]
# The explants were transferred to the bottom of wells of a 96-well plate to image with the Odyssey CLX near infrared imaging system. The fluorescent signal was measured in manually drawn ROI around the cartilage explants which was corrected for background signal by the software. […]
# human cartilage = target: T2, human cartilage (Homo sapiens, UniProt P02458); assay: Ex vivo binding to human cartilage with different stages of OA-induced damage (Odyssey CLX imaging)
# T2 construct: From surgical waste material obtained after total knee arthroplasty; from tissue; host or cells: human articular cartilage from joint replacement surgery of OA patients
# Protocol: From surgical waste material obtained after total knee arthroplasty (Patient number SMK1180), human cartilage from the macroscopically preserved, medium damage and severe damaged regions were isolated with a surgical blade. Human cartilage explants were overnight incubated in DMEM/F12 without FBS supplemented with 10.000 U/mL penicillin/streptomycin at 37°C with 5% CO2. Punches (6 mm) were generated using a biopsy punch. Three explants/damage condition were divided over sterile FACS tubes and exposed 4 µg/ml DTPA-IrDye 800CW isotype (2.201a) (substitution ratio IrDye 800CW= 1.54) or DTPA-IrDye 800CW anti-COLL II antibody (MQ4.112 hz3_1) (substitution ratio IrDye 800CW= 1.83) in DMEM/F12 media supplemented with 0.5% BSA (final volume was 1 ml) for 4 H on a roller at 37°C. After this incubation the samples were transferred to 50 ml falcon tubes (1 tube/condition, 3 punches/tube) and washed with PBS (50 ml) at 37°C (1x 30 min), followed by an o/n wash with PBS on a shaker at 4°C.
# The explants were transferred to the bottom of wells of a 96-well plate to measure the cartilage associated fluorescence with the Odyssey CLX near infrared imaging system (Figure 11). The cartilage was fixed in formalin for 4 H and thereafter transferred to 70% ethanol until processed/embedded in paraffin. […]
# T2 sequence (P02458 182-1241 limits assumed): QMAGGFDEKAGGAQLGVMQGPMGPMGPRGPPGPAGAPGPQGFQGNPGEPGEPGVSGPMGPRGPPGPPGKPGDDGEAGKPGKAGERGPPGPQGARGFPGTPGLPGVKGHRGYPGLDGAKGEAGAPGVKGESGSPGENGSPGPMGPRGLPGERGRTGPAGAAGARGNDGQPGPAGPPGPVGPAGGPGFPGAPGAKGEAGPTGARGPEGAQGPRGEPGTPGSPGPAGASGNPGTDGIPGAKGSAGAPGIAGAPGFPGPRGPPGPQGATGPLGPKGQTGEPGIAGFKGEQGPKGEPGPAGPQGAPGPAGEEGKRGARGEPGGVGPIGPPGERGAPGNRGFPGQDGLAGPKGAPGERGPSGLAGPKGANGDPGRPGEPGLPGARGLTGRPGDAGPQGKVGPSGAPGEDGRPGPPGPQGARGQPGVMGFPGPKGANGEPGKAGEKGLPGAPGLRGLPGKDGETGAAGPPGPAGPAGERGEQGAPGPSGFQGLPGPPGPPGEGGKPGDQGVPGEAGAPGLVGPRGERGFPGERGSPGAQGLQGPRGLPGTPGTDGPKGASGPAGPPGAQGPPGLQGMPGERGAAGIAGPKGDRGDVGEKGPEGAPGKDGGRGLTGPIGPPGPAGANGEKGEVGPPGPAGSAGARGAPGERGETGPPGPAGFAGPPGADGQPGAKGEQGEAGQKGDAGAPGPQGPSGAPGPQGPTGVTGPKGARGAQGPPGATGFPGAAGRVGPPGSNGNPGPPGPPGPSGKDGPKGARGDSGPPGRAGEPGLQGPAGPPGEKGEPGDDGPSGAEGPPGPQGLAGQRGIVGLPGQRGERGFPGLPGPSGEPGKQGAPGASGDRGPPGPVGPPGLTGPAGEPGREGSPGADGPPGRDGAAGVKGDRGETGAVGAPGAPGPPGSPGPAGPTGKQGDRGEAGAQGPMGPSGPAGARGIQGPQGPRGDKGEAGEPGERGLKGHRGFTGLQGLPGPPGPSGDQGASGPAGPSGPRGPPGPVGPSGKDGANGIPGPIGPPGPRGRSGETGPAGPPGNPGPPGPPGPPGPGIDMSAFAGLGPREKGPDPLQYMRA
# T1 sequence (P02458 182-1241 limits assumed): as above
Molecule,"cartilage associated radioactivity corrected for their weight, trypsin-damaged human cartilage compared to non-treated explants (human cartilage explants [1]; 4 µg/ml, 1.5 H, 37°C)","cartilage associated radioactivity/gram in trypsin-damaged human cartilage compared to isotype (human cartilage explants [1]; p<0.001, One-way ANOVA)",binding (fluorescent signal) to trypsin-induced damaged human cartilage explants compared to untreated explants (human cartilage explants [2]),"localization of the fluorescent signal in sections of the explants (human cartilage; Figure 11 bottom, compared with SafO staining)","binding (fluorescent signal) to cartilage when OA-damage increases (human cartilage; macroscopically preserved, medium damage and severe damaged regions, 4 µg/ml, 4 H, Figure 11, listed as DTPA-IrDye 800CW anti-COLL II antibody)"
B1,higher,higher,,,
B2,,,increased binding; also recorded: increases,localizes on the spots where visible cartilage damage is present,binds more; also recorded: increases

# — patent EP4442275A1, “ANTI-TYPE II COLLAGEN ANTIBODIES” (ModiQuest B.V., priority 2023, dated 2024)
